These are literature values, as cited in article PMC7077193.

In this series the target is eIF4E (Lactuca sativa).

On to VPg (from UniProt P31999), for which the equilibrium dissociation constant (Kd) (commonly the concentration at which binding is half-saturated) was 300 nM.
